Assay results taken from the supplement of paper PMC9170038.

Test system: K4 kissing-loop RNA reporter
Experiment: apparent KD of K4 kissing-loop reporter; higher = weaker reporter binding
Settings: Eterna round: R107
Experimental: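 RNA-MaP round R107: designed RNA switches with theophylline, tryptophan, arginine or FMN aptamers are transcribed on-chip within common flanks. They are titrated with a labelled K4 kissing-loop RNA reporter in RNA-MaP buffer (100 mM Tris pH 7.5, 80 mM KCl, 4 mM MgCl2), without ligand or with the indicated ligand. Median apparent KD per design.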

[1] = input ligand: theophylline 20 uM
[2] = input ligand: tryptophan 2.4 mM
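Note: bound reporter read as fluorescence of individual clusters on recovered sequencing chips by microscopy, with normalized cluster intensities fitted with a binding model.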

Sequence	apparent KD of K4 kissing-loop reporter (input ligand: FMN 200 uM) [nM]	apparent KD of K4 kissing-loop reporter (input ligand: arginine 13.2 mM) [nM]	apparent KD of K4 kissing-loop reporter (input ligand: none) [nM]	apparent KD of K4 kissing-loop reporter [1] [nM]	apparent KD of K4 kissing-loop reporter [2] [nM]
UUGUUUUACUGAAGGAGCGGCAAUUGAUACGUAGAUAUAGUGAUGUUAUAUAAGAUAGAGAGCCAGGUAGGUCGCAGAUUUUUUU [ExArgB.V]	164	157	144	185	118
UUUAGGAGCGGUGUUGAUUAGGGAGCGGAAGGAGCGCCGAUUAUGGCAGGUAGGUCGCCGGAAUGUAGUGAUGUUGCAUAGAGGG [ExArgA.V]	214	186	185	154	166
UUUAUAAAGUCGGCCGCCACUGGAUUUAUGUUUGUUUCGUCUGGAUCAAAGUGAUGUUUUGAGUCCAGGACCGGGACAUUUGUUA [whbob_Ex_Tryp_B_w38]	88.9	74.8	81.2	73.5	113
UUUAUAUUGUCGGCCGCCACUGGAUUAAUAUUUGUAUAAUCUAGUUCAAAGUGAUGUUUUGAGUCCAGGACCGGGACAUUUGAUA [JR_Nu_ExcTryptoB_Sub029]	622	501	624	575	491
UUUCGGCUCUGAGGAUAUUCGGACAAAUAUAGUGAUGUUGUAUAAGGAGGAGGGUGUUGGCAGUGAGGAGAAGGCAGAGGAGGAU [#07 K4 FMN B Exclusion]	376	208	397	358	214
UUUCGGUUCUGAGGAUAUUCGGACAAAUAUAGUGAUGUUGUAUAAGGAGGAGGGUGUUGGCAGUGCGGAGAAGGCAGACCACGAU [ExFMNB.X]	869	720	747	575	621
UUUCGUCUCUGAGGAUAUCAGACGAGAGUGAUGUUCUCCCAAAGCCCAGUGAUGUUGGAUGCUAUCUGAGAAGGCAGUGGGCGAA [Same State FMN B GF 12]	227	584	554	634	508
UUUCGUUGAAGUGAUACCAGACUUGAAAGUGAUGUUUUCCAAUAAUUUAAAUUUUUAGCUGUCCCUUGGCAGCACAGUUUAUUUA [JR_Nu_ExcTheophyB_Sub025]	210	363	275	401	181
UUUCUUUUUUUGAUGUUUUUUGUAUAAUGGCAGGAUAUCGUAGAUGCGAGAAGGGCUUUUAUGCGUUAUGAGUGAUGUUUGUAGG [aaxazvmullin]	324	270	320	272	256
UUUGGUUUCUCGGCCGCCACUCGUGGGAAAUGGGCCUCAGGGAUAUAGUGAUGUUAUGUAAAGAAGAGGACCGGGAGAAGGAAGG [ExTryptoB.Dl]	300	253	306	208	233
UUUGUAUAGGGAAGGAGCGUGAAUGAGAAAGAAUAUAGUGAUGUUAUAUAGAAGAAAGAAUCACAGGUAGGUCGCCCGGAGGAGG [SSArgB.G]	484	363	371	482	337
UUUGUAUAGGGAAGGAGCGUGAAUGAUAAUGAAUAUAGUGAUGUUAUAUAUAAGAAAGAAUCACAGGUAGGUCGCCCGGAGGAGG [SSArgB.J]	612	410	668	1350	428
UUUUAAAUGUCUGAUACCAGAGAAAAUAUAUGUAGUGAUGUUAUAUACAAAUUGAAUAAGCUCCCUUGGCAGCAGUAUUAAUUUU [AstrosExc-TheB#11]	493	643	713	662	493
UUUUAAAUGUCUGAUACCAGAGAAAAUUUAUGUAGUGAUGUUAUAUACAAAAUAAAUAAGCUCCCUUGGCAGCAGUAUUAAUUUU [AstrosExc-TheB#7]	465	449	465	357	442
UUUUAUUAAUACUUCUAGUGAUGUUAGAUACGAGGACCGGUACGGCCGCCACUCGCUUAUUGGUUUAUAUAUUUUAUAUUCUUUA [JR_SSTryptoA_Sub014]	327	362	342	369	281
UUUUGGUUCUGAGGAUAUUCGAAGAAAUAUAGUGAUGUUAUAUAAGGAGGAGGAUGUAGGGAGGAAGGAGAAGGCAGAAGAGGAG [ExFMNB.J]	1040	915	880	377	480
UUUUUGGAGAAUUAUAGUGAUGUUAUGAAGAAGGAUAUCUAAAGAUGGAGAAGGUUUAAUAGUUAAGGGAUGGAGGGUGGGUGGG [ExFMNA.P]	282	155	293	221	194
UUUUUGGAGAAUUAUAGUGAUGUUAUGAAGGAGGAUAUCUGGAGAUGGAGAAGGCCUAGUGGCUCAGGGAUGGAGGGUGGGUGGG [ExFMNA.Y]	704	411	487	655	301
